{"source": "paper PMC4409540", "about": "(Nature, 2015)", "proteins": {"B1": {"name": "MBP-tagged human TRPA1 (full-length) (natural protein, UniProt O75762 1-1119, looked up)", "chain": "MKRSLRKMWRPGEKKEPQGVVYEDVPDDTEDFKESLKVVFEGSAYGLQNFNKQKKLKRCDDMDTFFLHYAAAEGQIELMEKITRDSSLEVLHEMDDYGNTPLHCAVEKNQIESVKFLLSRGANPNLRNFNMMAPLHIAVQGMNNEVMKVLLEHRTIDVNLEGENGNTAVIIACTTNNSEALQILLKKGAKPCKSNKWGCFPIHQAAFSGSKECMEIILRFGEEHGYSRQLHINFMNNGKATPLHLAVQNGDLEMIKMCLDNGAQIDPVEKGRCTAIHFAATQGATEIVKLMISSYSGSVDIVNTTDGCHETMLHRASLFDHHELADYLISVGADINKIDSEGRSPLILATASASWNIVNLLLSKGAQVDIKDNFGRNFLHLTVQQPYGLKNLRPEFMQMQQIKELVMDEDNDGCTPLHYACRQGGPGSVNNLLGFNVSIHSKSKDKKSPLHFAASYGRINTCQRLLQDISDTRLLNEGDLHGMTPLHLAAKNGHDKVVQLLLKKGALFLSDHNGWTALHHASMGGYTQTMKVILDTNLKCTDRLDEDGNTALHFAAREGHAKAVALLLSHNADIVLNKQQASFLHLALHNKRKEVVLTIIRSKRWDECLKIFSHNSPGNKCPITEMIEYLPECMKVLLDFCMLHSTEDKSCRDYYIEYNFKYLQCPLEFTKKTPTQDVIYEPLTALNAMVQNNRIELLNHPVCKEYLLMKWLAYGFRAHMMNLGSYCLGLIPMTILVVNIKPGMAFNSTGIINETSDHSEILDTTNSYLIKTCMILVFLSSIFGYCKEAGQIFQQKRNYFMDISNVLEWIIYTTGIIFVLPLFVEIPAHLQWQCGAIAVYFYWMNFLLYLQRFENCGIFIVMLEVILKTLLRSTVVFIFLLLAFGLSFYILLNLQDPFSSPLLSIIQTFSMMLGDINYRESFLEPYLRNELAHPVLSFAQLVSFTIFVPIVLMNLLIGLAVGDIAEVQKHASLKRIAMQVELHTSLEKKLPLWFLRKVDQKSTIVYPNKPRSGGMLFHIFCFLFCTGEIRQEIPNADKSLEMEILKQKYRLKDLTFLLEKQHELIKLIIQKMEIISETEDDDSHCSFQDRFKKEQMEQRNSRWNTVLRAVKAKTHHLEP"}}, "molecular_target": "the molecule itself", "assay": "cryo-EM structure", "data": [{"protein": "B1", "values": [{"measurement": "stoichiometry N", "result": 4}]}]}
